For 1 substance, fluorescent intensity of mKO2 in HeLa cells after addition of DEM (oxidative stress inducer) results are on record in patent publication US20110206615A1.

The target of this experiment is mKO2-Nrf2 fusion molecule (mKO2 fused to amino acids 1-100 of human Nrf2, released from the probe reagent mKO2-Nrf2-100-T2A-Keap1 by self-cleavage at T2A) (human) (UniProt Q16236). The experiment can be described thus: cell-based or functional assay.
Chain of UniProt Q16236 (Q16236 other isoform, or with tags, fused parts or gaps): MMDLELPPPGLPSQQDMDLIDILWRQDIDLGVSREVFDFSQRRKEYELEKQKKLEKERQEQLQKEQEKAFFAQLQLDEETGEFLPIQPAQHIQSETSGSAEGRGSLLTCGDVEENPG

On to “human Keap1 (regulatory factor, released from mKO2-Nrf2-100-T2A-Keap1 by self-cleavage at T2A) (from UniProt Q14145 1-624)”, for which the fluorescent intensity of mKO2 in HeLa cells after addition of DEM (oxidative stress inducer) at 100 µM was 10 times.
